This assay concerns the target T1, Slx1^RING+CT-Slx4^CCD complex (S. pombe, UniProt Q9P7M3 176-271; Q9P6M0 352-419).
T1 construct: Slx4, Schizosaccharomyces pombe, C-terminal conserved domain, residues 352-419; source: E. coli, co-expressed, purified by a procedure similar to that of Slx1^RING-Slx4^CCD; not shown: His6, N-terminal, cleaved
T1 sequence (looked up) 1: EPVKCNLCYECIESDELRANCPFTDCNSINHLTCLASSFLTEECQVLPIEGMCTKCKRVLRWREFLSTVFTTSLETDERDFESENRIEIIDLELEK
T1 sequence (looked up) 2: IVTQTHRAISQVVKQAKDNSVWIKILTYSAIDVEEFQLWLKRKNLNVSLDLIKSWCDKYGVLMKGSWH
Description: ITC; 2.37 mM Pmt3 injected into 120 μM complex in the cell; 25 °C; 20 mM sodium phosphate pH 6.8, 100 mM NaCl; three repeats. As to conditions: both partners purified.

B1: mature Pmt3 (S. pombe SUMO), residues 1-111 (natural protein, UniProt O13351 1-111, looked up)
chain: MSESPSANISDADKSAITPTTGDTSQQDVKPSTEHINLKVVGQDNNEVFFKIKKTTEFSKLMKIYCARQGKSMNSLRFLVDGERIRPDQTPAELDMEDGDQIEAVLEQLGG
notes: Pmt3 (SUMO), Schizosaccharomyces pombe, mature form, residues 1-111; Uniformly 15N-labelled for the NMR titrations; source: E. coli, purified by a procedure similar to that of the complex
The molecule B1 returned a Kd of 78.3 ± 9.9 µM.

The values above are taken from paper PMC4726241, “Crystal structure and SUMO binding of Slx1-Slx4 complex” (Scientific Reports, 2016).
